Substrate in the data set: CC(=O)SCCNC(=O)CCNC(=O)[C@H](O)C(C)(C)COP(=O)(O)OP(=O)(O)OC[C@H]1O[C@@H](n2cnc3c(N)ncnc32)[C@H](O)[C@@H]1OP(=O)(O)O
Nature of the data set: purified protein. To be noted: acyl-CoA site of the active site.

The results in this text go back to publication PMC4932917, “Structural basis for acyl-group discrimination by human Gcn5L2” (Acta Crystallographica. Section D, Structural Biology, 2016).

As usually defined, the Km is the concentration of substrate that gives half-maximal velocity.

B1: human Gcn5L2 (hsGcn5L2) (Homo sapiens) (protein)
chain: GIIEFHVIGNSLTPKANRRVLLWLVGLQNVFSHQLPRMPKEYIARLVFDPKHKTLALIKDGRVIGGICFRMFPTQGFTEIVFCAVTSNEQVKGYGTHLMNHLKEYHIKHNILYFLTYADEYAIGYFKKQGFSKDIKVPKSRYLGYIKDYEGATLMECELNPRIPYT
For B1, the Km came to 0.91 ± 0.09 µM.
